Results reported in patent US20210253727A1 (CORVUS PHARMACEUTICALS, published 2021).
Changes are numbered by the printed parent chain.

T1: CD73 (as used in the affinity measurements) (UniProt P21589 27-549, limits assumed)
T1 construct: also called CD73 antigen; 5'-nucleotidase
T1 sequence (looked up): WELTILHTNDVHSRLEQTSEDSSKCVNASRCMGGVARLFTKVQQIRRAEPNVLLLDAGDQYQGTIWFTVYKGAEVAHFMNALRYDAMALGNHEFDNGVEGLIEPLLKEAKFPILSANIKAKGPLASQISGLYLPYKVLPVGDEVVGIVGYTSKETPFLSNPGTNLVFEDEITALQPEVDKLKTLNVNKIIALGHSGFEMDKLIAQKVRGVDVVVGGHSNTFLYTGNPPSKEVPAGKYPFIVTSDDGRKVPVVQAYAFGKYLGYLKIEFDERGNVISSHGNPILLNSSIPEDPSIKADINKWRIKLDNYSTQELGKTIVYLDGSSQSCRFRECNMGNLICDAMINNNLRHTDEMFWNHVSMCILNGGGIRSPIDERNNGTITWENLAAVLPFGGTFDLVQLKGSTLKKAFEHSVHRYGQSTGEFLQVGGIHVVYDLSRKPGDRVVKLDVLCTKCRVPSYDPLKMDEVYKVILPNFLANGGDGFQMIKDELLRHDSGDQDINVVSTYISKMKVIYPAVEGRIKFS

B1: CPX-002 (chimeric 1E9 antibody, clone BAP094-01) (antibody, human IgG1, V domains shown)
VH: QVQLQQPGAELVKPGASVKMSCKASGYTFTSYWITWVKQRPGQGLEWIGDIYPGSGNTNYNEKFKTKATLTVDTSSSTAYMQLSSLTSEDSAVYYCAKEGGLTTEDYALDYWGQGTLVTVSS
VL: DIVLTQSPASLAVSLGQRATISCRASKNVSTSGYSYMHWYQQKPGQPPKLLIYLASNLESGVPTRFSGSGSGTDFTLNIHPVEEEDAATYYCQHSRELPFTFGSGTKLEIK
notes: also called chimeric antibody
B2: CPX-004 (humanized 1E9 antibody, BAP094-hum05) (antibody, human IgG1, V domains shown)
VH: EVQLVQSGAEVKKPGATVKISCKVSGYTFTSYWITWIRQPPGKGLEWIGDIYPGSGNTNYNEKFKTRVTISADKSISTAYLQWSSLKASDTAMYYCAKEGGLTTEDYALDYWGQGTLVTVSS
VL: DVVMTQSPLSLPVTLGQPASISCRASKNVSTSGYSYMHWYQQKPGQAPRLLIYLASNLESGIPPRFSGSGYGTDFTLTINNIESEDAAYYFCQHSRELPFTFGQGTKVEIK
B3: CPX-003 (humanized 1E9 antibody, BAP094-hum03) (antibody, human IgG1, V domains shown)
VH: QVQLVQSGAEVKKPGASVKVSCKASGYTFTSYWITWVRQARGQRLEWIGDIYPGSGNTNYNEKFKTRVTITADKSTSTAYMELSSLRSEDTAVYYCAKEGGLTTEDYALDYWGQGTLVTVSS
VL: EIVLTQSPDFQSVTPKEKVTITCRASKNVSTSGYSYMHWYQQKPGKAPKLLIYLASNLESGIPPRFSGSGYGTDFTLTINNIESEDAAYYFCQHSRELPFTFGQGTKVEI
B4: CPX-006 (humanized 1E9 antibody; BAP094-hum06-HC with BAP094-hum07-LC) (antibody, V domains shown)
VH: B3 VH with K12E, R41P, R44G, I48M
VL: EIVLTQSPATLSLSPGERATLSCRASKNVSTSGYSYMHWYQQKPGQAPRLLIYLASNLESGIPPRFSGSGYGTDFTLTINNIESEDAAYYFCQHSRELPFTFGQGTKVEIK
notes: also called anti-CD73 (CPX-006)
B5: CPX-005 (humanized 1E9 antibody, BAP094-hum06) (antibody, human IgG1, V domains shown)
VH: B3 VH with K12E, R41P, R44G, I48M
VL: AIQLTQSPSSLSASVGDRVTITCRASKNVSTSGYSYMHWYQQKPGQAPRLLIYLASNLESGVPSRFSGSGSGTDFTFTISSLEAEDAATYYCQHSRELPFTFGQGTKVEIK
B6: CPX-007 (humanized 1E9 antibody; BAP094-hum03-HC with BAP094-hum07-LC) (antibody, human IgG1, V domains shown)
VH: B3 VH
VL: B4 VL

These binders were tested against T1, CD73 (as used in the affinity …) (assay: affinity measurement, method not stated).

Kd [nM]	Binder
9.4	B1
17.8	B2
19.5	B3
7.1	B4
6.9	B5
15.9	B6
